According to patent publication US20110318339A1 (FABRUS, published 2011):
Changes are numbered by the printed parent chain. Numbers in names are those of the source.

B1: Fab VH1-46_IGHD6-6*01_IGHJ1*01 S102A/S103P/S104F/H111F I51T/N52V & L6_IGKJ1*01 (Fab, V domains shown)
VH: QVQLVQSGAEVKKPGASVKVSCKASGYTFTSYYMHWVRQAPGQGLEWMGITVPSGGSTSYAQKFQGRVTMTRDTSTSTVYMELSSLRSEDTAVYYCAREEYAPFSAEYFQFWGQGTLVTVSS
VL: not shown
notes: Fab made in E. coli: VH on CH1 with His6 and Flag tags (Plasmid A), VL on kappa CL (Plasmid C); also called H: APFF TV & L: wt; APFF I51T/N52V
B2: Fab VH1-46_IGHD6-6*01_IGHJ1*01 S102A/S103P/S104F/H111F & L6_IGKJ1*01 (Fab, V domains shown)
VH: B1 VH with T51I, V52N
VL: not shown
notes: Fab made in E. coli: VH on CH1 with His6 and Flag tags (Plasmid A), VL on kappa CL (Plasmid C); also called H: APFF & L: wt
B3: Fab H:APFF VLTH & L:NDH LG (Fab, V domains shown)
VH: B1 VH with T51V, V52L, S54T, G56H
VL: EIVLTQSPATLSLSPGERATLSCRASQNVDHYLAWYQQKPGQAPRLLIYDALNRGTGIPARFSGSGSGTDFTLTISSLEPEDFAVYYCQQRSNWPPWTFGQGTKVEIKR
notes: Fab, kappa light chain
B4: Fab H:APFF LTH & L:NDH LS (Fab, V domains shown)
VH: B1 VH with T51I, V52L, S54T, G56H
VL: B3 VL with G55S
notes: Fab, kappa light chain
B5: Fab H:APFF ELTH & L6_IGKJ1*01 (Fab, V domains shown)
VH: B1 VH with T51E, V52L, S54T, G56H
VL: not shown
notes: Fab, kappa light chain; also called H:APPF ELTH; H:APFF ELTH & L:wt
B6: Fab H:APFF LTH & L6_IGKJ1*01 (Fab, V domains shown)
VH: B1 VH with T51I, V52L, S54T, G56H
VL: not shown
notes: Fab, kappa light chain; also called H:APFF LTH & L:wt
B7: Fab H:APFF TV & L6_IGKJ1*01 (Fab, V domains shown)
VH: B1 VH
VL: not shown
notes: Fab, kappa light chain; also called H:APFF TV & L:wt; APFF I51T/N52V
B8: Fab H:APFF VLTH & L6_IGKJ1*01 (Fab, V domains shown)
VH: B1 VH with T51V, V52L, S54T, G56H
VL: not shown
notes: Fab, kappa light chain; also called H:APPF VLTH; H:APFF VLTH & L:wt
B9: Fab H:APFF NLTH & L6_IGKJ1*01 (Fab, V domains shown)
VH: B1 VH with T51N, V52L, S54T, G56H
VL: not shown
notes: Fab, kappa light chain; also called H:APFF NLTH & L:wt
B10: Fab H:APFF TLATH & L6_IGKJ1*01 (Fab, V domains shown)
VH: B1 VH with V52L, P53A, S54T, G56H
VL: not shown
notes: Fab, kappa light chain; also called H:APFF TLATH & L:wt

The binders below were run against T1, recombinant human DLL4 (Cat# 1506-D4/CF, R&D Systems) (human, UniProt Q9NR61 27-529) (assay: ELISA, DLL4 coated, Fab 0.63 nM).
T1 construct: Bought protein; also called hDLL4; rHuman DLL4
Procedure: (§1) The plate was blocked by adding 1% BSA in Tris-buffered Saline Tween (TBST) and incubating for 1 hour at room temperature followed by washing 2 times with 150 μl TBST. A Fab antibody was serially diluted in 1% BSA in PBS. A 50 μl aliquot of each serial dilution was added, in triplicate, to each well and the plate was incubated for 1 hour at room temperature followed by washing 2 times with TBST. 50 μl of either goat anti-human kappa HRP conjugated secondary antibody (Cat # A7164-1 mL, Sigma-Aldrich) or goat anti-human lambda HRP conjugated secondary antibody (Cat # L1645-1 ml, Sigma-Aldrich), diluted 1:1000 in 1% BSA in PBS, was added to each well and the plate was incubated for 30 minutes at room temperature followed by washing 3 times with 200 μl TBST. Finally, 50 μl TMB one-component reagent (Cat # TMBW-1000-01, BioFax) was added and allowed to develop for 2 minutes at room temperature. The reaction was immediately halted by the addition of 50 μl 0.5M H₂SO₄ and the absorbance at 450 nm was measured using an ELISA plate reader.

ELISA absorbance at 450 nm	Binder
0.115 A450	B1

The binders below were run against T1, recombinant human DLL4 (Cat# …) (assay: ELISA, DLL4 coated, Fab 20 nM).
Procedure: as §1

ELISA absorbance at 450 nm	Binder
0.648 A450	B1

Each binder was assayed against T1, recombinant human DLL4 (Cat# …) (assay: ELISA, DLL4 coated, Fab 2.5 nM).
Procedure: as §1

ELISA absorbance at 450 nm	Binder
0.358 A450	B1

These binders were tested against T1, recombinant human DLL4 (Cat# …) (assay: ELISA, DLL4 coated, Fab 1.3 nM).
Procedure: as §1

ELISA absorbance at 450 nm	Binder
0.055 A450	B1

The binders below were run against T1, recombinant human DLL4 (Cat# …) (assay: ELISA, DLL4 coated, Fab 75 nM).

ELISA absorbance at 450 nm	Binder
0.072 A450	B2

These binders were tested against T1, recombinant human DLL4 (Cat# …) (assay: ELISA, DLL4 coated, Fab 5 nM).
Procedure: as §1

ELISA absorbance at 450 nm	Binder
0.724 A450	B1

What follows are binders tested against T2, Recombinant Human DLL4 (Cat# 1506-D4/CF, R&D Systems) (human, UniProt Q9NR61 27-529) (assay: ELISA, DLL4 coated).
T2 construct: Bought protein; also called rHuman DLL4; hDLL4

fold increased binding affinity against the antibody mutants with heavy chain H:APFF ALTH	Binder
~10 fold	B3
~10 fold	B4

These binders were tested against T1, recombinant human DLL4 (Cat# …) (assay: ELISA, DLL4 coated, Fab 100 nM).

ELISA absorbance at 450 nm	Binder
0.072 A450	B2

What follows are binders tested against T1, recombinant human DLL4 (Cat# …) (assay: ELISA, DLL4 coated, Fab 10 nM).
Procedure: as §1

ELISA absorbance at 450 nm	Binder
0.506 A450	B1

These binders were tested against T1, recombinant human DLL4 (Cat# …) (assay: ELISA, DLL4 coated, Fab 0.31 nM).
Procedure: as §1

ELISA absorbance at 450 nm	Binder
0.648 A450	B1

These binders were tested against T1, recombinant human DLL4 (Cat# …) (assay: ELISA, DLL4 coated, Fab 0.16 nM).
Procedure: as §1

ELISA absorbance at 450 nm	Binder
0.506 A450	B1

What follows are binders tested against T1, recombinant human DLL4 (Cat# …) (assay: ELISA, DLL4 coated, Fab 50 nM).
Procedure: as §1

ELISA absorbance at 450 nm	Binder
0.06 A450	B2

The binders below were run against T2, Recombinant Human DLL4 (Cat# …) (assay: ELISA, DLL4 coated, estimated from dose-dependent binding).
Procedure: as §1

Kd	Binder
1 to 10 nM	B5
1 to 10 nM	B6
10 to 100 nM	B7
1 to 10 nM	B8
1 to 10 nM	B9
> 100 nM	B10
